These are literature values, as cited in article PMC5726790.

The target of data set [1] is CCR7 (Mus musculus) (UniProt P47774).
Data set [2] concerns the target C5a receptor (Homo sapiens) (UniProt P21730).

pKd: −log10 of the molar value.

Chain of UniProt P47774 (P47774 25-378): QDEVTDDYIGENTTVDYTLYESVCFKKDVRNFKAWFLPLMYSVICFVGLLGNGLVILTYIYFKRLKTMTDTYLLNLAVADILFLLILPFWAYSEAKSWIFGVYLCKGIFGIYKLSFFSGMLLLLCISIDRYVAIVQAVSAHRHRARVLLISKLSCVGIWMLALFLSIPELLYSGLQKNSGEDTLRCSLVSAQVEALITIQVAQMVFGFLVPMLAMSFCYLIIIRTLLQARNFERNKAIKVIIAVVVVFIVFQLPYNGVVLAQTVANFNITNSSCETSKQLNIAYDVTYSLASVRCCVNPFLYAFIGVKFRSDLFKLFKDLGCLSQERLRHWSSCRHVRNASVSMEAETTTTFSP
Chain of UniProt P21730 (P21730 whole entry): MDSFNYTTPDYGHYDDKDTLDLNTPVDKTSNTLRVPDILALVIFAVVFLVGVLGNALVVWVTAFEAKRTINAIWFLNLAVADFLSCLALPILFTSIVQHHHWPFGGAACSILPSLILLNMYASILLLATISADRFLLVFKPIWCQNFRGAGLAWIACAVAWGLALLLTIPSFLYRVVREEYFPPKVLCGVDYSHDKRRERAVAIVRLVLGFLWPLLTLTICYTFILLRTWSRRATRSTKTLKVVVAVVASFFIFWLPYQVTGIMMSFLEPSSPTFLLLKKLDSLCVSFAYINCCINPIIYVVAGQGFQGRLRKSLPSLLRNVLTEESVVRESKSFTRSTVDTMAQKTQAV

In the case of CCL19 (from UniProt O70460), the pKd (in general, the negative decadic logarithm of the Kd, by convention in mol/L) in data set [1] is 8.82.

Turning to C5a C5a (from UniProt P01031), the pKd in data set [2] was 9.00.
